Assay results as given in patent US20260001947A1.

Molecular target: human PD-L1 extracellular domain protein displayed on the membrane of MC38-PD-L1 cells (human) (UniProt Q9NZQ7)
Assay: flow cytometry on MC38-PD-L1 cells, directly PE-labelled antibody, 0.5 µl; Blank-PE shows 0.13% in the same gate

human PD-L1 extracellular domain protein displayed on the membrane of MC38-PD-L1 cells (human), sequence (Q9NZQ7 19-238): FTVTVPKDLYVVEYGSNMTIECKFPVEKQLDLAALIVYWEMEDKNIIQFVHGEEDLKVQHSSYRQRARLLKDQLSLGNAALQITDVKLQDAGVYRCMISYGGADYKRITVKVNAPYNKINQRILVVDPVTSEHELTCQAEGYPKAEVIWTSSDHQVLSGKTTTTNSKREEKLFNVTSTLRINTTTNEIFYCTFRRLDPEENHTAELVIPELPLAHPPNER

Work on “PE anti-human PD-L1 (BioLegend, clone number: 29E-2A3) (antibody)” yielded a % of cells in gate M6-2 of 99.4%.
